Changes are numbered by the printed parent chain.

Test [1] deals with T1, hu-IL-36β (human IL-36β, N-terminally truncated active form R5-E157) (human).
T1 construct: Purification tag cleaved off; Biotinylated where captured; also called hu-IL-36b
T1 chain: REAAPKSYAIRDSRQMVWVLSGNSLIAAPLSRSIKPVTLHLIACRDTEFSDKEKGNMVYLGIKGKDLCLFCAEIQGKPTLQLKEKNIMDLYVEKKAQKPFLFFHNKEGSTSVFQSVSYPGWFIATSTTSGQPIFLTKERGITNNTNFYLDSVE
Description: SPR (Biacore), purified Fab, biotinylated hu-IL-36β captured.

For test [2], the target named is T1, hu-IL-36β (human IL-36β, N-terminally …). Description: phage competition ELISA: Fab on phage, soluble hu-IL-36β titrated against coated hu-IL-36β. The procedure:
Selected phages with top binding signal were purified to perform phage competition ELISA. The optimal phage concentration was incubated with serially-diluted human IL-36β in ELISA buffer (0.5% BSA and 0.05% TWEEN©20 in PBS) in NUNC F plate for two hours. 80 μl of the mixture was transferred to human IL-36β coated wells for 15 min to capture unbound phage. The plate was washed with wash buffer (0.05% TWEEN©20 in PBS), and HRP-conjugated anti-M13 antibody (Sino biological, Cat #11973-MM05-H-50) was added in ELISA buffer for 30 min. The plate was incubated at room temperature for one hour with agitation, washed six times with wash buffer and developed for 15 minutes by addition of 100 μL/well of 1 Step Turbo™ B substrate (ThermoFisher, Cat #34022). The enzymatic reaction was stopped using 50 μL/well of 2N H₂SO₄. Plates were analyzed using a Perkin Elmer plate reader (Envision 2103 multilabel reader) at 450 nm. The absorbance at 450 nm was plotted as a function of antigen concentration in solution to determine phage IC₅₀. […] Real affinities for purified Fab molecules for the phage variants were also measured using Biacore (method described in detail in section E below).

Test [3] shares this target. Description: SPR (Biacore 8K), biotinylated hu-IL-36β captured on CAP chip, Fab injected, 37°C. How it is done:
Briefly, a 1:4 dilution of Biotin CAPture Reagent (GE) into HBS-EP buffer (0.01 M HEPES pH 7.4, 0.15 M NaCl, 3 mM EDTA, 0.005% Surfactant P20) was applied to a CAP sensor chip at 2 uL/min flow rate. For kinetics measurements, 6 nM biotinylated human IL-36β was captured at 10 uL/min to achieve ˜50 response units in the second flow cell (FC2). FC1 was kept as a reference. […] The sensorgram was recorded and subject to reference and buffer subtraction before evaluating by BIACORE® 8K Evaluation Software (version 1.1.1.7442). Association rates (kₒₙ) and dissociation rates (koff) were calculated using a simple one-to-one Langmuir binding model.

Test [4] has the same target. Description: cell-based or functional assay.
For test [5], the target named is T2, hu-IL-36γ (human IL-36γ, N-terminally truncated active form S18-D169) (human, UniProt Q9NZH8 18-169).
T2 construct: Purification tag cleaved off; Biotinylated where captured; also called hu-IL-36g
T2 sequence: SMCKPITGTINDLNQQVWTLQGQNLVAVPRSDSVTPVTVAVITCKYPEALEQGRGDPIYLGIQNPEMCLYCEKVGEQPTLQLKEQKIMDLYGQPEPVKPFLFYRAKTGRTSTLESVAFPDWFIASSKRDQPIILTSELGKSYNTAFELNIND
Description: ELISA, yeast Fab supernatant, anti-Fab-HRP.

The target of test [6] is T3, hu-IL-36α (human IL-36α, N-terminally truncated active form K6-F158) (human, UniProt Q9UHA7 6-158).
T3 construct: Purification tag cleaved off; Biotinylated where captured (SPR, some ELISAs); also called hu-IL-36a
T3 sequence: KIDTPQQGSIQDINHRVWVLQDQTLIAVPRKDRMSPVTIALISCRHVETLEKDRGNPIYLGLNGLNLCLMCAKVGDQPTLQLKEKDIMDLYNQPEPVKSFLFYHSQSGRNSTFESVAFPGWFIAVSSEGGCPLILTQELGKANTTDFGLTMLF
Description: ELISA, yeast Fab supernatant, anti-Fab-HRP.

For test [7], the target named is T4, cy-IL-36α (cynomolgus monkey IL-36α, K6-F158) (cynomolgus monkey, UniProt Q9UHA7 14-158 (human entry)).
T4 construct: Purification tag cleaved off
T4 chain: T3 sequence with I2S, D3E, T4M, Q7P, G8V, T24I, M34V, A40S, V74A
Description: ELISA on coated cy- and hu-IL-36α, yeast Fab supernatant; ratio of OD450. How it is done:
(§1) Cell supernatants from yeast clones of interest were tested for binding to human IL-36 by ELISA as described above. To compare the binding of these supernatants to human and cynomolgus monkey IL-36, IL-36 proteins were coated at 2.5 μg/mL on 96-well Nunc MaxiSorp plates (Thermo Fisher) and the plates blocked with 5% goat serum in PBS. Yeast supernatants were diluted 1:1 with PBST containing 1% w/v BSA and added to the ELISA plates for 1-1.5 hours with agitation. Bound Fab was detected by incubating the plates with F(ab′)2-HRP (Jackson ImmunoResearch). The ELISAs were developed for 3-10 minutes by addition of 50 μL/well of tetramethylbenzidine (TMB) microwell peroxidase substrate (Scytek Laboratories, Inc., Logan, Utah, USA) and enzymatic color development was stopped by acidification with 50 µL/well of 2 N H₂SO₄ (Sigma-Aldrich Corporation, St. Louis, Mo., USA). The optical density of the samples at a wavelength of 450 nm (OD450) was analyzed with a SpectraMax i3X plate reader (Molecular Devices LLC, San Jose, Calif., USA). To estimate the relative affinity of each clone for cynomolgus monkey IL-36 and human IL-36 in this assay, a ratio of OD450 (OD450_cyIL-36/OD450_huIL-36) was calculated for each clone and IL-36 cytokine.

The target of test [8] is T5, cy-IL-36γ (cynomolgus monkey IL-36γ, S18-K168) (cynomolgus monkey, UniProt Q9NZH8 18-167 (human entry)).
T5 construct: Purification tag cleaved off
T5 chain: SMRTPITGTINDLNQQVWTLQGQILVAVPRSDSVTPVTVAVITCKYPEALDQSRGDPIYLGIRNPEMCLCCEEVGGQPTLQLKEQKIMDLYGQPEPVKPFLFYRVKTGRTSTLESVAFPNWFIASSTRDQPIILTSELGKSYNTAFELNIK
Description: ELISA on coated cy- and hu-IL-36γ, yeast Fab supernatant; ratio of OD450. How it is done: as §1

In test [9] the target is T2, hu-IL-36γ (human IL-36γ, N-terminally …). Description: cell-based or functional assay.
Test [10] has as its target T3, hu-IL-36α (human IL-36α, N-terminally …). Description: cell-based or functional assay.
The target in test [11] is T1, hu-IL-36β (human IL-36β, N-terminally …). Description: cell-based or functional assay.

B1: mAb6_2 Fab (Fab, V domains shown)
VH: ELQLQESGPGLVKPSETLSLTCTVSGGSITSSNYYWGWIRQPPGKGLEWIGSIDYTGSTYYNPSLKSRVTISVDTSKNQFSLKLSSVTAADTAVYYCARGKYYETYLGFDVWGQGTLVTVSS
VL: ESVLTQPPSVSGAPGQRVTISCTGSSSNIGAHYDVHWYQQLPGTAPKLLIYGNDNRPSGVPDRFSGSKSGTSASLAITGLQAEDEADYYCQSYDYSLSGYVFGGGTKLTVL
Turning to B1, in [1], the “apparent Kd (pooled screen)” value turned out to be 40.1 nM. In addition, the “apparent IC50 (pooled screen)” value in [2] was 8.57 nM. Further, in test [3], the “apparent Kd (pooled screen)” value was determined as 14.7 nM, the “apparent koff (pooled screen)” value was found to be 0.00128 s⁻¹ and the “apparent kon (pooled screen)” value turned out to be 87200 M⁻¹ s⁻¹. The “IC50, IL-36-stimulated IL-8 secretion by HaCat cells” value (from here on “IC50 … by HaCat cells”) in test [4] is 3.19 nM.

B2: mAb4.0 Fab (yeast clone culture supernatant) (Fab, V domains shown)
VH: QLQLQESGPGLVKPSETLSLTCTVSGGSIGSRSYYWGWIRQPPGKGLEWIGSIHYSGTTYYNPSLKSRVTISVDTSKNQFSLKLSSVTAADTAVYYCARVAPSYPRVFDYWGQGTLVTVSS
VL: B1 VL with E1Q, H32G, D54R, S98R, G99V
notes: Human Fab secreted by the yeast clone, not purified
Take B2: the entries for the “ELISA OD450” value in [5] and in [6] were 2.3 OD450 and 2.16 OD450, respectively. Moreover, the “ELISA OD450cyIL-36/OD450hu-IL-36” value in test [7] was 0.5 ratio; in [8], 1.2 ratio. In addition, the results for the “% Inhibition, HEK-Blue IL-36R SEAP reporter assay” value in test [9] and in [10] were 57% and 91%, respectively.

B3: mAb6_2.3 Fab (Fab, V domains shown)
VH: B1 VH with S31A, P63T, R99T
VL: B1 VL
notes: Purified Fab (Biacore, HaCat assay)
As to B3, binding in [1] was put at a Kd of 1.62 nM. Moreover, in test [2], the IC50 was 0.49 nM. Further, the “IC50 … by HaCat cells” value in [4] came out at 1.31 nM.

B4: mAb6_2.1 Fab (Fab, V domains shown)
VH: B1 VH with S32T, S52N, P63A, R99T
VL: B1 VL
notes: as for B3
In turn, B4 gave a Kd in test [1] of 3.5 nM. In [2], this molecule showed an IC50 of 0.77 nM. Further, in [4], the “IC50 … by HaCat cells” value is 1.64 nM.

B5: mAb6_2.2 Fab (Fab, V domains shown)
VH: B1 VH with Y34A, Y60A, R99H
VL: B1 VL
notes: as for B3
B5 gave a Kd in test [1] of 2.55 nM. This molecule also returned an IC50 in test [2] of 1.04 nM. Besides, in test [4], the “IC50 … by HaCat cells” value worked out at 2.22 nM.

B6: mAb6_2.4 Fab (Fab, V domains shown)
VH: B1 VH with S31A, R99T
VL: B1 VL
notes: Purified Fab
B6 displayed a Kd in test [1] of 1.05 nM. Moreover, the “IC50 … by HaCat cells” value in test [4] came to 0.13 nM.

B7: mAb7.0 recombinant human IgG1 (antibody, V domains shown)
VH: QVQLVESGGGVVQPGRSLRLSCAASGFTFSSYGMHWVRQAPGKGLEWVAVISYGGSERYYADSVKGRFTISRDNSKNTLYLQMNSLRAEDTAVYYCAREPWYSSRGWTGYGFDVWGQGTLVTVSS
VL: EIVLTQSPGTLSLSPGERATLSCRASQSVSSNYLAWYQQKPGQAPKLLIYSASSLQSGVPSRFSGSGSGTDFTLTISSLQPEDFATYYCQQTYSYPPTFGQGTKVEIK
Take B7: the “IC50, HEK-Blue IL-36R SEAP reporter assay” value in test [11] was found to be 1.4 nM.

B8: mAb8.0 recombinant human IgG1 (antibody, V domains shown)
VH: QVQLVQSGAEVKKPGSSVKVSCKASGGTFSNYAISWVRQAPGQGLEWMGGILPILGTVDYAQKFQGRVTITADESTSTAYMELSSLRSEDTAVYYCAREPWYRLGAFDVWGQGTLVTVSS
VL: DIQMTQSPSSLSASVGDRVTITCRASQTIYKYLNWYQQKPGKAPKLLIYAASSLQSGVPSRFSGSGSGTDFTLTISSLQPEDFATYYCQQYSSIPYTFGQGTKVEIK
In the case of B8, the “IC50, HEK-Blue IL-36R SEAP reporter assay” value in test [11] came out at 0.34 nM.

Values taken from patent US20230235040A1 (ALMIRALL S A, published 2023).
